According to US5739276:
Values joined by “and” are separate entries in the source; they are usually repeats but may differ in a detail not shown here. Equal entries are not always repeated.

Tests used:
[1] = target: rat brain Na channel (voltage-sensitive sodium channels in rat brain membranes) (rat); experiment: competition on rat brain membranes; label (competitor) 125I-δ-conotoxin TxVIA
[2] = target: rat brain Ca^2+ channels (ω-conotoxin GVIA binding site in rat brain membranes) (rat); experiment: competition on rat brain membranes; label (competitor) 125I-ω-conotoxin GVIA
[3] = target: rat brain Na channel (voltage-sensitive sodium channels in rat brain membranes) (rat); experiment: binding of 125I-δ-conotoxin TxVIA to rat brain membranes, no competitor
[4] = target: ω-conotoxin GVIA binding sites on brain membrane preparations from frogs, chicks and rats
[5] = target: rat brain Ca^2+ channels (ω-conotoxin GVIA binding site in rat brain membranes) (rat); experiment: binding of 125I-ω-conotoxin GVIA to rat brain membranes, no competitor

Substance δ-conotoxin PVIA (amidated) (peptide) has a cpm bound [1] of 889 cpm and a cpm bound [2] of 4930 cpm.
Work on ^125 I!δ-conotoxin TxVIA (peptide) yielded a cpm bound [3] of 4890 cpm.
For “ω-conotoxin GVIA (from UniProt P01522) (peptide)”, the cpm bound [1] was 4710 cpm, the cpm bound [2] was 954 cpm and the percent of ^125 I-GVIA displaced [4] was 90% and 98%.
With δ-conotoxin TxVIA (peptide) the cpm bound [1] was 925 cpm and the cpm bound [2] was 4720 cpm.
Work on “^125 I-labeled ω-conotoxin GVIA (from UniProt P01522) (peptide)” yielded a cpm bound [5] of 4400 cpm.
Substance “δ-conotoxin PVIA (nonamidated) (peptide)” has a cpm bound [1] of 848 cpm and a cpm bound [2] of 4390 cpm.
